# Measurements taken from PMC3411838.
# T1: Myc-tagged CARMA1-CARD (wild type) (mouse) (UniProt Q8CIS0)
# T1 sequence: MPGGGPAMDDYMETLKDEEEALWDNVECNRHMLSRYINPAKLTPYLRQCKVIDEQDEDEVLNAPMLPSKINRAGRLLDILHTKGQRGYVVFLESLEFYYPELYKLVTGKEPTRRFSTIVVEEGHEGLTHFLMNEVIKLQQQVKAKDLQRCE
# Target: T1, Myc-tagged CARMA1-CARD (wild type) (mouse)
row,"NF-κB activation-dependent dual luciferase reporter in HEK293T, full-length BCL10 mutant against wild type (CARMA1 not co-transfected) [%]",Binder
1,< 40,full-length BCL10 E50A (pEGFP-C1) (natural protein) MEAPAPSLTEEDLTEVKKDALENLRVYLCEKIIAERHFDHLRAKKILSRADTEEISCRTSSRKRAGKLLDYLQENPRGLDTLVESIRREKTQSFLIQKITDEVLKLRNIKLEHLKGLKCSSCEPFAAGATNNLSRCNSDESNLSEKQRASTVMYHPEGESSTAPFFSMASSLNLPVLEVGRTENSSFSSATLPRPGDPGAPPLPPDLRLEEGGSCGNSSEMFLPLRSRALSRQ
2,< 40,full-length BCL10 E54A (pEGFP-C1) (natural protein) MEAPAPSLTEEDLTEVKKDALENLRVYLCEKIIAERHFDHLRAKKILSREDTEAISCRTSSRKRAGKLLDYLQENPRGLDTLVESIRREKTQSFLIQKITDEVLKLRNIKLEHLKGLKCSSCEPFAAGATNNLSRCNSDESNLSEKQRASTVMYHPEGESSTAPFFSMASSLNLPVLEVGRTENSSFSSATLPRPGDPGAPPLPPDLRLEEGGSCGNSSEMFLPLRSRALSRQ
3,< 40,full-length BCL10 E53A (pEGFP-C1) (natural protein) MEAPAPSLTEEDLTEVKKDALENLRVYLCEKIIAERHFDHLRAKKILSREDTAEISCRTSSRKRAGKLLDYLQENPRGLDTLVESIRREKTQSFLIQKITDEVLKLRNIKLEHLKGLKCSSCEPFAAGATNNLSRCNSDESNLSEKQRASTVMYHPEGESSTAPFFSMASSLNLPVLEVGRTENSSFSSATLPRPGDPGAPPLPPDLRLEEGGSCGNSSEMFLPLRSRALSRQ
